The experiment deals with neuropilin-1 on adult rat brain oligodendrocytes (rat) (UniProt Q9QWJ9).

In turn, Sema3A (ligand) registered a branching index (BI) of oligodendrocyte process extension (% decrease of BI at 48 h) of 81 and a half-effect, corresponding to a BI reduction of 50% of 25 ng/mL.

These data come from patent US20020119944A1.
